The source of these data is US20240301039A1 (NEW YORK UNIVERSITY IN ABU DHABI, published 2024).

The target of this assay is T1, uniformly 15N,13C-labelled wild-type SARS-CoV-2 NSP9 with an additional GlyAlaMetGly tetrapeptide at the … (SARS-CoV-2, UniProt P0DTD1 1-7096).
T1 construct: mature
The assay is described as follows: 15N-1H HSQC NMR titration at 278 K.

B1: nanobody 2NSP23 (VHH)
VHH: QVQLQESGGGLVQPGGSLRLSCAASGLAFSMYTMGWFRQAPGKEREFVAMIISSGDSTDYADSVKGRFTISRDNGKNTVYLQMDSLKPEDTAVYYCAAPKFRYYFSTSPGDFDSWGQGTQVTVSS
notes: also called 2NSP23 with His Tag
Turning to B1, the “backbone amide cross-peaks that survive at protein/nanobody ratio 1:2” value is approximately 35%.
